In the RNAGym collection of RNA variant scans (doi:10.1073/pnas.2313332121):

B1: TPR t1 (parent)
chain: GACCAAUCUGCCCUCAGAGCUCGAGAACAUCUUCGGAUGCAGAGGAGGCAGGCUUCGGUGGCGCGAUAGCGCCAACGUCCUCAACCUCCAAUGCAUCCCACCACAUGAUGAUGCCUGAAGAGCCUUGGUUUUUUG

Variants of: B1
Test: polymerase ribozyme fitness, log enrichment relative to wild type (log ratio); higher = more active; in vitro selection for triplet polymerase activity
Outline: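 Libraries of mutants in each subunit of a heterodimeric triplet polymerase ribozyme were generated by PCR and transcribed. In triplicate, each went through one in vitro selection round: annealing with biotinylated primer, partner subunit and triplets; frozen incubation at −7 °C; gel excision of extended constructs; streptavidin-bead capture; RT-PCR. Fitness, taken from Illumina sequencing of input and output libraries, is the logarithm of a genotype's enrichment over wild-type enrichment, averaged across replicates with inverse-variance weights. The logarithm is base 2, and genotypes needed ≥10 input reads and ≥1 read per output to be kept.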

| Variant | polymerase ribozyme fitness (log ratio) |
| --- | --- |
| C72A C88U G93C | -0.854 |
| G71C U81A G120U | -1.99 |
| C72A U81G G120U | -0.653 |
| C72A A90U C115U | -1.55 |
| G71A C73U C101A U132A | -2.2 |
| G71C A111U | -4.31 |
| C70U U130G | -1.24 |
| C72A U78G U133A | 0.102 |
| C72A A111G A121C | 1.27 |
| C72G C88U | -0.692 |
| C72A C86G G122A | -2.26 |
| C70U U87C C89A G120C | -2.9 |
| C70U U129A | -1.55 |
| C72G G77C U78C A105G A119G | -2.47 |
| C72A A111C C124A G127A | 0.235 |
| G71C U92A A119U C124A | -3.83 |
| C72G C99A C114G U129A U132A G135C | -4.93 |
| G71U C97U | -0.285 |
| G71U A121C | 1.43 |
| G71U G127A | -1.25 |
| G71A C114A | -1.41 |
| G71C C88U A90C C115G | -4.94 |
| G71C A84U C94U | -1.84 |
| C72A C114A | -1.85 |

| Variant | polymerase ribozyme fitness (log ratio) |
| --- | --- |
| C72G C114A | -1.55 |
| G71A U81G A83U | -6.59 |
| C70U U96C C99U C102U | -6.59 |
| G71A C85U G120C | 0.00346 |
| G71C C99U | -4.28 |
| G71A C82A C89U | -1.01 |
| G71C C79U C101U | -0.546 |
| G71U C123A | 1.94 |
| G71U C123G | 0.824 |
| G71U C123U | 0.812 |
| G71C C94U | -3.04 |
| C72A U129C | -0.6 |
| C72A C73G C86U C115A C123G | -0.582 |
| G71U C99U C115A | -2.82 |
| C72A C80G C114A C123G U126A | -6.21 |
| C72A C102U C123A C124G | 0.156 |
| G71A C99U U106C | -5.44 |
| G71C A118U | -0.826 |
| G71A A111C A118U | -0.257 |
| G71U C80A U116G G117U A119U | -7.09 |
| G71U U133G | 0.225 |
| C72G U78A G127U U129C | -2.25 |
| G71A A84U | -1.02 |
| C72A C102A U129A | -2.3 |

| Variant | polymerase ribozyme fitness (log ratio) |
| --- | --- |
| G71C C114A G127U | -5.17 |
| C72G A111G | 0.355 |
| C72G A111U | -3.82 |
| G71U C86U C102U | -2.63 |
| G71U G110C | -3.69 |
| G71U G110A | -1.39 |
| G71A C94A | -2.86 |
| C70U U132C | -0.89 |
| G71A C85A | -2.44 |
| G71A C85G | -2.38 |
| C72A C80A A90G U125A | -3.65 |
| G71A C99U C115A U129C G135U | -5.53 |
| C72G U78G C97U C124A | 1.18 |
| C72G C86G U109A C114A G120C | -5.75 |
| G71C C123G | 0.627 |
| C72G A108C | -5.06 |
| G71A G93U | -1.52 |
| G71A G93A | -1.39 |
| C72A A95C | -0.926 |
| C72A A105U G122A | -2.49 |
| G71U U109A | -4.43 |
| G71A G113U | -3.89 |
| G71A G113A | -1.22 |
| G71U A84G G120A U130G | -1.33 |

| Variant | polymerase ribozyme fitness (log ratio) |
| --- | --- |
| C72A C94G C102A C115U | -5.19 |
| C72G A91C U96C C104A | -4.69 |
| C70U U87G G120C | 1.04 |
| C72G U78C C79A G128C | -4.09 |
| G71A C79U C123U | 1.66 |
| C72G C73U | -0.887 |
| G71A A90C G120A | -1.97 |
| G71C C102G C114U C115U G120C | -5.82 |
| G71A A111G G120U | -2.5 |
| G71U C98U | -2.33 |
| G71A A84G C102A C115G | -6.59 |
| G71A G93C A95C | -2.61 |
| C72A C89U U92G | -1.39 |
| C72G C115U | -1.03 |
| C72G C115A | -0.17 |
| G71U G77C C86U | -2.09 |
| C72A U81C | -0.634 |
| C72A C104G | -7.39 |
| C72A U131A | -0.165 |
| G71C A100U G120U | -1.67 |
| C72G C82G G93C | -1.73 |
| G71U C114G U132A | -2.34 |
| G71U A83U C99A A105C C123U | -7.02 |
| G71U A105U | -2.22 |

| Variant | polymerase ribozyme fitness (log ratio) |
| --- | --- |
| C72A C94A | -0.415 |
| C72A C123A U126G | -0.782 |
| G71A G77U | -1.13 |
| G71A C79G C124G U125A | -3.71 |
| C72G C88A A90U | -2.14 |
| C72A U112A | 1.59 |
| G71A U129A | -1.76 |
| C72A U87G | 0.194 |
| G71C A118U C124G | 0.835 |
| C72G C88U A91C A118U G122U | -2.76 |
| C72A C76G U112G A119G | -0.512 |
| C72A C124U | 1.25 |
| G71C C85U C94U U132A | -2.18 |
| G71A U92A C99G G120C | -7.51 |
| G71U C82A C88A | -1.39 |
| C72A U96A A108G G122U U129C | -3.93 |
| C72A C76G C101A C115A | -1.47 |
| G71U U129G | -0.793 |
| C70U U125G G127A | -1.83 |
| G71C G135C | -1.39 |
| G71A U78C | -0.782 |
| G71U G107A | -4.04 |
| C72G C94G | -1.73 |
| G71U G93C | -2.12 |

| Variant | polymerase ribozyme fitness (log ratio) |
| --- | --- |
| G71U G93A | -0.562 |
| C72G C88G U96G | -2.68 |
| C72G C104A | -1.71 |
| C72G C73U G93C A111C G122U G135A | -4.92 |
| C70U U96C C97U C104A | -5.19 |
| C72A G117A U126A | -1.78 |
| C72G G113C U129A | -4.04 |
| G71U G77U C89A | -2.84 |
| G71U C114U | -1.41 |
| G71A U112A | 0.323 |
| C70U U112A U116A | -1.48 |
| C72A G77A C89U U106C | -1.11 |
| C70U U92C C97U C123U | -0.926 |
| C72G G113A | -1.71 |
| C72G G113C | -2.87 |
| G71U G77C U126C | -2.3 |
| C70U U109C | -3.68 |
| G71A C123G | 1.1 |
| C72G C85U C102U C104A A105G | -7.34 |
| G71U C94G G113C U126G | -6.21 |
| G71A A74U | -3.83 |
| C72A G120A U130G | -0.18 |
| G71C G110C U126C | -7.04 |
| C72G G127U | -1.1 |

| Variant | polymerase ribozyme fitness (log ratio) |
| --- | --- |
| G71C C85A G117A | -2.67 |
| G71U C76G | -2.91 |
| G71C U81A U109A | -6.73 |
| C72A U81A C94U C114A | -2.21 |
| G71U G93C G117C | -4.78 |
| C72A C76A | -1.85 |
| C72G C73A A121G | 0.168 |
| C72A G122A | -0.72 |
| G71C C88U | -2.61 |
| G71U G117U | -1.78 |
| G71C A95U A111G C123U | -3.04 |
| C72A C85U C104U | 0.563 |
| G71C C115A | -1.07 |
| G71U A119U | -0.434 |
| C72G A90U C101A G122A | -3.94 |
| C72A C115G | -2.29 |
| C72G A105G | -1.94 |
| C72G A83U A90G C114G | -3.25 |
| C72G U78G | -0.102 |
| G71U A111U | -3.91 |
| G71A U125A | -0.783 |
| C72A C102A | -1.51 |
| C72G G77A G120A | -1.96 |
